Measurements as given in a protein production outcome set (Wang et al. 2014).

experiment: label from the status in PepcDB records

Row | Sequence | protein production
1 | MLQTIKRADSAVSIIGAGIAGAWQALLFAQAGHAVTLHERGDAAMTDSTSHWAGGMLAPWCEAEVAEPIISRLGQRSLDIWRRELPDTPFNGSLVVAHPRERNDFERFARMTEEHRRLDAASLAELEPSLEGRFRDALFFPTEGHVEPRRVLPKLHERIRAAGGTIKFSSDVSAADLDGIVIDCRGLSARDEQPDLRGVKGEMILIETSEVQLARPVRLIHPRWPLYVIPREDNLFMLGATSIEAEDTGVSVRSALELLGAAYTVHPAFGEARIVEFGSGLRPAFPDNLPRIGIRGGRITVNGLYRHGFLIAPALAELTLQYVQRGQIDNEVMQCG | failed
2 | MLQTLYTIILYLIQPLIWIRLWLRGRKAPAYRRRWGERYGFCAEKVKPDGIMLHSVSVGETLAAIPLVRALRHRYPNLPITVTTMTPTGSERVRSAFGDTVYHVYLPYDLPCALKRFFDQVRPKIVIIMETELWPNLIAELHKREIPLVIANARLSERSAAGYKKIGKLMRHILQRITLVAAQNQEDGNRFIALGLKRSSLKVTGSLKFDISVTPELAARAITLRRQWAPHRPVWIATSTHEGEEAIVLAAHRRLLATYPDLLLILVPRHPERFSTTQALAESMGFNYTLRSSGEQPSANTQVVIGDTMGELMLLYGIADLAFVGGSLVERGGHNPLEAAAHAIPVLMGPHTFNFKDICNKLDQADGLITVTDADSLGKEVGKLLADEDYRLYYGRHAVEVLHQNQGALQMLLTLLEPYLPQRTQLEHHHHHH | not failed
3 | MLQYGQKSFLIVDDFTDFRTSTRSMLRELGVRDVDTADSGEQALRMCAQKRYDFILQDFHLGDGKKNGQQVLEDLIIDKHISHECVFIMVTAESSQAIVLSAIEHEPDAYLTKPFNRVGLAQRVEKLFQRKTLLKPILQALDRNRPAEVLAACAELCKKDPRLAPLCLRYRADALRNLNRFEELEKFLKAILASRPQPWVYAALGALMHKRGQNAQAQGVYEQALKAFPIMPGLYDGMAEVLVAQGDTRRAQNLLEEAVRLSPLSVRRQSTLGKLALENEDFESASKAFRHAVNQGQSSRYKDAENNLGLVQALMSKNAGFGLDARTRVEINTTLSEVAKENPEDQGLQVRARMMKAASLQQAGDPETAGKLTEQAIQRLDKMNQFFSVDSALTVAAQLQAMGQEAAAIGVLKNCVESYGDDPKVMEKVGKLTDDPSVLNAITEAVTLNRQGVRSYQGGQLGEALQLFRKALGLQPKNISIALNTAQALLRIGGDNPQPAIMQECRDALTSVAGIPASDNRYDRYRKLHIRVFGA | failed
4 | MLRFKRKNFFKTINFKIALVFALLLLITLEIVGAIFVKQLESKNIQDFKQSVQIPTYIDNSLSEQLTVSSTRKANGQIKTILSNYNNTNVDEIQVVDSKGTIRGTSDVNDQSVVGQKTTDRNVKNAIYNNRTYTKSTYDTQNNGRYYVSIVPLYSSNSAGNSSQLVGVLYVRANMKSVYSTINNIMGIFVIASLAAMVLGLGIAIIIARAITRPIEEMKQQTQRIARGDYAGQVRVYSDDELGQLAKAINNLSIRVEESQESTEAERRRLDSVLSHMSDGVIATDRRGNITIINETASDFMDVTAEKAIGNSILDILKIRDDYSLRDLIENQDELMLDFSSNERDLILNAYFSLIQRESGFISGLVCVLHDVTEQQKIDNDRKQFVSNVSHELRTPLTSLRSYIEALSDGAWKDPEVAPGFLKVTQEETDRMIRMINELLSLSRMDSGTTRVDMELVNINEMFNYVLDRFDMILKKDDNPAKYYTIKREFTKRDLWVEIDTDKFTQVLDNIMNNAIKYSPDGGVVTCRLLETHNQVIISISDQGLGIPRADLGHVFDRFFRVDKARSRAQGGTGLGLAISKEVVQMLGGRIWVDSVEGKGSTFYISLPYEPYEEEDLWDDDSQA | failed
5 | MLRIYAPASSANISVGFDTLGAAISPIDGSLLGDVVQIESISTGFELESAGYFVRKLPKEPQKNIVYQAYVLFSEQLKLRGANVKPLRLTLEKNMPIGSGLGSSACSIVAALVALNQFHNEPFSKMELLEMMGELEGRISGSIHYDNVAPCYLGGVQFMVQS | failed
6 | MLRMKKFLVVFFLVQSIFVFAQQSKKVESALKTFNSGKIDDGIKKMEAATQEDPSEDNWDLLVQMYKYRYEYAEQQQEDALTLLLLQSLGGSKAKIKKYTSPSVCYRDLIEKSKQAELNSRSTTASMVLRAYLVDYYPDTAVADTAKKEFNSAEKYFSEKDYPNAKLHYQNACKLDPSYYKALIYLGDTHWHMKKMDSAIYYFKQGIQMHGDLLEPRKYLVDALRDSKQYDEAIQESINAITVYPDESMFEKVESLYAKTGRTFDRHWIKRGCNVNTYAGTQLVTTNETWKAYQQARGEIKTYCDTNGVIVKSNSLTKAHYMEVYSWEKMLASNLVVPQELAFAKKMADEGYLDCYVFISLYHYDEYDQFIDFAKNNKERIRTYITKYLIQ | failed
7 | MLSARTMKEVVYWSPKKVADWLLENAMPEYCEPLEHFTGQDLINLTQEDFKKPPLYRVSSDNGQRLLDMIETLKMEHHMEAHKN | not failed
8 | MLSFCPSCNNMLLITSGDSGVYTLACRSCPYEFPIEGIEIYDRKKLPRKEVDDVLGGGWDNVDQTKTQCPNYDTCGGESAYFFQLQIRSADEPMTTFYKCVNCGHRWKEN | failed
9 | MLSIMRRPIAALAVLLAAAVSIPAQAQFSDSYKFLEAVRKKEGDKVTEALNEPGTQIVNTKDYTTGQTGLHIVVARRDLVWVQFLVAKGANVNARDNRGVTPLVLAADIGFIEGVDELIRSGARVDEANNTGETPLISAVHRRDLALVRMLIKAGANPDRPDNSGRSARDYAMLEGKGSPLLGEIEKATKDAKAAGPQKTYGPSF | failed
10 | MLSKFLLFSARLSTTKILASLIIIMILATGLYQWLIHTPAFSPQVSAVSTTTENDFSLTDWTINLVDKLNWQQGGSSTFFNAGLLFVFLSLATSVGLPRQIAALVAGINLGAFIGIIVATLAATLGCFITFSVARYLLSDCITRKYPSKLAQLSAFLGEQTFLKAIVIRILPLGSNFITNIIAGVSKVSMPAYVSGSFVGFIPQMVIFSLAGSGIRLGAQNELIASATLFVIALILTTYLVKKHKAKTKN | failed
11 | MLSKVIAQANIDHAEKWFERADKIVIVTHVSPDGDAIGSSLGLWHFLESQEKTVNVIVPNAFPDFLRWMPGAKDIIRYDKYTEFANKLLNEADVICCLDFNALSRIDAMADAVAQSPARKMMIDHHLNPEAFCRIIISHPEISSTSELVFRLICRLGYFEDITKEGAECIYTGMMTDTGGFTYNSNDREIYFIISELLSKGIDKDEIYRKVYNTYSEGRLRLMGYVLYDKMQVFPQFNSALVWLTKEEQSKFQYVKGDTEGFVNIPLSIKNIIFSVFLREDTEKNMIKVSLRSVGAFPCNKVAAEFFNGGGHLNASGGEFYGTMDEAIDLFKQALVKYEELLLAKK | failed
12 | MLSLNQEVHGPKTSEVYGFVGSISIVVATVIFLIWGYVPDKFLESIGIYYYPSKYWAMAMPMYSMVTLLVALVFYIGLNFMSTSKPTSLNTLFDDYSREDVNFLPLMKNGEDRPIDPISDIDITRINDLMFDSHLAK | failed
13 | MLSRLFLLFALVPFLELYLLVQVGTVIGAAPTILLVILTAVVGAWLARTQGLGVMARVQNDLARGIMPGQALIDGFCILLAGLLLLTPGFLTDVVGLLLLLPPFRALLASRLQRHFAVRYASSGTTAEGGHFIVYGSSGPAAHEEPRHAVVIDTQPIDSSSAATGLADDTKPLGDAQPSGDGRPRS | failed
14 | MLSRLSLLSNSRAFQQARWRIYRLKVSPTVHASQYHILSGRKLAQSIREKANDEIQAIKLKHPNFKPTLKIIQVGARPDSSTYVRMKLKASKDSNVDCIIEKLPAEITEVELLKKISDINDDDSIHGLLIQLPLPRHLDETTITNAVDFKKDVDGFHRYNAGELAKKGGKPYFIPCTPYGCMKLLEEAHVKLDGKNAVVLGRSSIVGNPIASLLKNANATVTVCHSHTRNIAEVVSQADIVIAACGIPQYVKSDWIKEGAVVIDVGINYVPDISKKSGQKLVGDVDFDSVKEKTSYITPVPGGVGPMTVAMLVSNVLLAAKRQFVESEKLPVIKPLPLHLESPVPSDIDISRAQSPKHIKQVAEELGIHSHELELYGHYKAKISPNIFKRLESRENGKYVLVAGITPTPLGEGKSTTTMGLVQALSAHLGKPSIANVRQPSLGPTLGVKGGAAGGGYAQVIPMDEFNLHLTGDIHAISAANNLLAAAIDTRMFHEATQKNDSTFYKRLVPRKKGIRKFTPSMQRRLKRLDIEKEDPDALTPEEVKRFARLNINPDTITIRRVVDINDRMLRQITIGEAATEKGFTRTTGFDITVASELMAILALSKSLHEMKERIGRMVIGADYDNKPVTVEDIGCTGALTALLRDAIKPNLMQTLEGTPVMVHAGPFANISIGASSVIADLMALKLVGSEKNPLNDKNIHEPGYVVTEAGFDFAMGGERFFDIKCRSSGLVPDAVVLVATVRALKSHGGAPNVKPGQSLPKEYTEENIDFVAKGVSNLVKQIENIKTFGIPVVVAINRFETDSQAEIEVIKKAALNAGASHAVTSNHWMEGGKGAVELAHAVVDATKEPKNFNFLYDVNSSIEDKLTSIVQKMYGGAKIEVSPEAQKKIDTYKKQGFGNLPICIAKTQYSLSHDPSLKGVPRGFTFPIRDVRASIGAGYLYALAAEIQTIPGLSTYAGYMAVEVDDDGEIEGLF | failed
15 | MLSVIIITKNEEANIRRCLESVHFADEIIVLDSGSTDNTLAIAREYTDKVFSTDWQGYGIQKDRALQKAQGDWVLNLDADESVSSELRQEILQAISSDTADAFRIPIQMIFYNQVLKYSGSPKRHIRLFKRENASYSKDIVHEKVLIPVNARVGKLKKPIWHHSFSDVHHVLYKLNKYSSYSAKIRIESNEKVGLVKTFFSALWMFVRCLFLQKGFLDGRAGFLFAVFGAQGAFYRGVKQIYKDRDINKLPSVNHIKEELEHHHHHH | not failed
16 | MLSYCPNIFYLIMTTLCLVIQTGCSPAQDHVHSQLHSSISVTDRDGNTVQLNQPARRIVCLFEASVDDLYMLGAGKSIIGIPAKIYTSSDLYRAYSILDRRIYEKKIATPSNWEASTNIESVVALQPDLVIVSAGQKDVIQILNRMHIPVYSVLSENLQQTRKELLDLGKLTGKSQRASELVEFIDHEIQAIQQRNHTQSDQKTIYYGWSGGRIFSTSGRDSMPNTVMTLAGAHNVVNTAIDQPNVNPEKLIEWNPDVILLWNTNPKQIYQRSELKTLTAVKQQHVFNLSPSFLFNPHTPKILLAANQLNHWVYPAPHSDQAATQDKLRILTQFYGKTAAEQLIQYANDVTKE | failed
17 | MLTAAVLLPLVGALVAWIVPDNRLRPLVLPAVAVPHFLLTLALLAWTPPPSPQGWIFLDPLGKIVLLCISTLFLICAVYAVGYLAYRRDRSNRVLCMGLLACLSAMTLVTASQHLGLLWVAVETTTVTMAPLIYFNRNARSIEATWKYLLICSVGIALALLGLFFLAYATLVAHRDATLLLGPILASARELNPGWLHASFIFMLVGFGSKMGIAPLHSWKPDAYGEAPGLVGALLAGGLVNCAFLAILRVYQISLASGGEYLFFQKALLTMGLISMGLAAVFMARQADFKRMLAYSSVEHVGILAVALGLGKGALFGALFHLLNNGLTKGVLFLSSGNIHRSFNSKSTEVVRGALARLPWSAGLFLAGFIAITGSPPFSPFVSEFSIVSSAFVEGRYLVGGLFLFFLAVIFIGMALTVLPLVMGVPPADAERTDYRDRLLTVGPPLALLGLILMLGVWLPEPLLRLLGEGAALLEAKP | failed
18 | MLTEMHIAVIGGDARQLEVIRKLVELDAKLSLIGFDQLDHGFTGAAKESIQNLDFTSVDAIILPVAGTNAKGEVDTIFSNEKVSITKEQIENTPEHFTIYSGIGTPYLENLVSTTNRKLIKLFDRDDVAIYNSIPTVEGTLMMVIQHTDYTIHGSNVMVLGFGRTGMSVARAFQSLGAHVKVGARRSEHIARITEMMFSPFHMQDIEKEVGDIDIVINTIPHLVVTANVISKMPAHTLVIDLASKPGGTDFRYAEKRGVKALLAPGLPGIVAPKTAGQILANVLSQLLAEDVIARKENGE | failed
19 | MLTFEKVLEIFADYLTADETIEVYISRHGCVRVEFDQDFHYCSGEVCHTPKELFNLLADDYRTYVEIELTKGRRELTEDDEREADALCKRHLERWREKLE | failed
